Source: US20190359693A1

Molecular target: hemagglutinin (HA) of influenza A/Env/MPJ193/09 (H3N?) (influenza A virus)
Assay: cell-based or functional assay

MD3606 (Fc fusion) showed an Average neutralization titers of 11.8 nM.
